Experimental data reported in patent publication US9315862B2, “Aptamer regulated nucleic acids and uses thereof” (California Institute of Technology, priority 2004, dated 2016).
Where a chain is given by its changes, count along the chain named.

Key:
[1] = system: target mRNA encoding green fluorescent protein (GFP); assay: Protein expression assay: in vivo GFP regulation activity of antiswitches in yeast cells; type: cell-based, S. cerevisiae; conditions: for theophylline concentration at which the antiswitch switches GFP expression (inhibits expression / decreases to background levels): theophylline concentration in the media, s8 is an "on" switch; for switching theophylline concentration compared with s1-4: modified lower-affinity theophylline aptamer
Description: (§1) Yeast cells were inoculated into synthetic complete media supplemented with the appropriate drop out solution and sugar source (2% raffinose, 1% sucrose) and grown overnight at 30° C. Cells were back diluted into fresh media to an OD600 of 0.1 and grown at 30° C. For assaying antiswitch activity, this fresh media contained appropriate concentrations of theophylline (Sigma), caffeine (Sigma), tetracycline (Sigma), or water (negative control) and expression was induced to a final concentration of 2% galactose, or an equivalent volume of water was added (noninduced control). After growing for three hours, the GFP and Venus levels were assayed on a Safire (Tecan) fluorescent plate reader set to the appropriate excitation (GFP-485 nm; Venus-515 nm) and emission (GFP-515 nm; Venus-[…]) wavelengths. For assaying the antiswitch temporal response, cells were back diluted into fresh media containing 2% galactose. After growing in inducing media for three hours, theophylline or water was added and fluorescence was monitored over time. Fluorescence was normalized for cell number by dividing relative fluorescence units (RFUs) by the OD600 of the culture.
The expression of antiswitches in S. cerevisiae was accomplished using a novel non-coding RNA (ncRNA) expression construct similar to a previously described system (Taira et al., Nucleic Acids Res 19, 5125-30 (1991)) (see FIG. 6). Briefly, the RNA to be expressed is cloned between two hammerhead ribozymes known to self-cleave in vivo (Samarsky et al., Proc Natl Acad Sci USA 96, 6609-14 (1999)). This dual hammerhead construct can be placed under the control of Pol II promoters, and when transcribed the flanking hammerhead ribozymes cleave out from the desired RNA at an efficiency greater than 99% (see FIG. 11). The construct enables creation of ncRNAs with defined 5′ and 3′ ends that are free of potentially interfering flanking sequences. Antiswitch s1 was expressed in this construct under control of a galactose-inducible (GAL1) promoter in yeast cells. A plasmid containing a yeast enhanced GFP (yEGFP) (Mateus et al., Yeast 16, 1313-23 (2000)) under the control of a GAL1 promoter was transformed into the same cells (FIG. 1a).

theophylline aptamer = conditions: cited from earlier work
E. coli membrane = conditions: cited from earlier work
[2] = system: yellow fluorescent variant protein (Venus) mRNA target; assay: Protein expression assay: in vivo Venus (YFP) regulation by antiswitches in yeast cells; type: cell-based, S. cerevisiae
Description: as §1
To illustrate this we introduced into cells two switches each responsive to a different effector molecule and each regulating the protein expression of a different mRNA target: s1, a theophylline responsive GFP regulator, and s9 (see FIG. 9), a tetracycline responsive yellow fluorescent variant protein (Venus) (Nagai et al., Nat Biotechnol 20, 87-90 (2002)) regulator (FIG. 5a). Changes in the targeting capabilities of these molecules were made by swapping out the antisense stem and switching aptamer stem while keeping the remainder of the aptamer module the same. Concurrent expression of these two antiswitches with a plasmid carrying both GFP and Venus allowed for an assay of the simultaneous regulation of gene expression by modular antiswitch design. […] Furthermore, the addition of both ligands decreased expression of both GFP and Venus. […]

GFP mRNA = assay: RNA quantification by qRT-PCR of antiswitch s1 and target mRNA; type: cell-based, S. cerevisiae
Description: Yeast cells were grown according to methods detailed in protein expression assays. Total RNA was extracted using standard acid phenol extraction procedures (Caponigro et al., Mol Cell Biol 13, 5141-8 (1993)). Briefly, cells were pelleted and frozen in liquid nitrogen. Pellets were resuspended in a 50 mM NaOAc (pH 5.2) and 10 mM EDTA buffer. Cells were lysed by the addition of SDS to a final concentration of 1.6% and equal volume of acid phenol. Solutions were kept at 65° C. with intermittent vortexing for 10 minutes. Following cooling on ice, the aqueous phase was extracted and further extraction was carried out with an equal volume of chloroform. RNA samples were ethanol precipitated and resuspended in water. Total RNA was quantified by OD260 readings. RNA samples were DNased (Invitrogen) according to manufacturer's instructions. cDNA was synthesized using gene-specific primers (see FIG. 13) and Superscript III reverse transciptase (Invitrogen) according to the manufacturer's instructions. qRT-PCR was performed on this cDNA using an iCycler iQ system (BioRAD). Samples were prepared using the iQ SYBR green supermix and primer pairs specific for different templates (see FIG. 13) on dilution series of the cDNA, according to the manufacturer's instructions. Data was analyzed using the iCycler iQ software.

[3] = Structural probing of antiswitch by nuclease mapping (RNase T1) with theophylline alone
Description: Antiswitch and target sequences were PCR amplified with primers containing a T7 polymerase promoter. RNA was transcribed using Ampliscribe T7 transcription kits (Epicentre) according to manufacture's instructions, except that transcription was carried out at 42° C. and for gel-shift assays antiswitches were radiolabeled by the addition of [α-^32P]-UTP to the transcription mix. The RNA was purified on a 15% denaturing gel, eluted, ethanol precipitated, and resuspended in water. RNA was quantified by OD260 readings. For nuclease mapping, antiswitches were 5′ end labeled with fluorescein (Molecular Probes) by incubating 25 μg of RNA with phosphate reactive label, dissolved in DMSO (Sigma), in labeling buffer (0.12 M methylimidazole pH 9.0, 0.16 M EDAC) for four hours, according to manufacturer's instructions. Labeled RNA was purified by ethanol precipitation and run on a 12% denaturing gel. Fluorescent bands were excised from the gel, eluted into water for three hours at 37° C., and ethanol precipitated.
For nuclease mapping, fluorescein-labeled antiswitch RNA was resuspended in buffer (50 mM Tris-HCl pH 8.0, 100 mM NaCl, 5 mM MgCl2), denatured at 65° C. for three minutes, and allowed to slow cool to room temperature. Antiswitch RNA was incubated with varying concentrations of theophylline at room temperature for 15 minutes. RNase T1 (Ambion) was added to the antiswitch-ligand mixture and incubated at room temperature for 15 minutes. Cleavage products were visualized using laser-induced fluorescence capillary electrophoresis on a P/ACE MDQ machine (Beckman) using a single-stranded nucleic acid analysis kit (Beckman) according to manufacturer's instructions.

[4] = cells with s1 and s9, plasmid carrying both GFP and Venus
[5] = theophylline and tetracycline, cells with s1 and s9

Molecule: s8: redesigned "on" antiswitch regulator responsive to theophylline, SEQ ID NO: 8 (ACCUUUAGACAUUUAGAUACCAGCAUCGUCUUGAUGCCCUUGGCAGCUAAAUGUC; RNA, backbone not given here)
- theophylline concentration at which the antiswitch switches GFP expression (inhibits expression / decreases to background levels) [1]: around 1 mM

Molecule: Cn1c(=O)c2c(ncn2C)n(C)c1=O [caffeine]
- binding to the theophylline aptamer (theophylline aptamer): does not bind

Molecule: Cn1c(=O)c2[nH]cnc2n(C)c1=O [theophylline]
- Kd (theophylline aptamer): 290 nM
- drop in theophylline concentration across the E. coli membrane (E. coli membrane): > 1,000 fold

B1: s3: stabilized antiswitch construct, antisense stem five nucleotides longer than s1, SEQ ID NO: 3 (nucleic acid)
chain: ACCUUUAGACAUUUAAUUAACCUCUUAAUUAAAUGUCUAAAGGUGAAGAUACCAGCAUCGUCUUGAUGCCCUUGGCAGCUUCACCUUUAG
modifications: RNA, backbone not given here
- theophylline concentration required to switch, relative to s1 [1]: roughly 1.5 fold
- theophylline concentration required to switch, relative to s2 [1]: ~6 fold
- decrease (inhibition) of GFP expression from control/full expression levels in the "off" state ([1]; absence of theophylline): 10%
- theophylline concentration at which the antiswitch switches GFP expression (inhibits expression / decreases to background levels) [1]: approximately 1.25 mM

B2: s1: theophylline-responsive "off" antiswitch RNA targeting GFP mRNA, SEQ ID NO: 1 (nucleic acid)
chain: ACCUUUAGACAUUUACCUCUAAAUGUCUAAAGGUGAUACCAGCAUCGUCUUGAUGCCCUUGGCAGCACCUUUAG
modifications: chemistry not given here
- GFP expression on addition of caffeine ([1]; caffeine as negative control effector): does not change expression levels
- GFP expression on addition of theophylline [1, 4]: decreased
- GFP expression on addition of both ligands [1, 5]: decreased
- Venus expression on addition of theophylline [2, 4]: unaffected
- relative levels of target transcript (GFP mRNA; cells harboring s1, absence versus high levels of theophylline): did not change significantly
- steady-state relative level of antiswitch versus target levels (GFP mRNA; same promoter for antiswitch and target): approximately 1,000 fold
- antisense domain (peak 1) RNase T1 cleavage ([3]; 2 mM theophylline): appearance of peak 1
- switching aptamer stem (peak 2) RNase T1 cleavage ([3]; 2 mM theophylline): absent
- switching aptamer stem (peak 2) RNase T1 cleavage ([3]; absence of theophylline and 200 μM theophylline): cleaved

B3: s2: destabilized antiswitch construct based on s1 (A21 to C), SEQ ID NO: 2 (nucleic acid)
chain: B2 chain with A22C
modifications: RNA, backbone not given here
- theophylline concentration at which the antiswitch switches GFP expression (inhibits expression / decreases to background levels) [1]: greater than 0.2 mM

B4: s4: destabilized antiswitch construct with altered loop sequence (U18 to C), SEQ ID NO: 4 (nucleic acid)
chain: B2 chain with U18C, A22C
modifications: RNA, backbone not given here
- theophylline concentration at which the antiswitch switches GFP expression (inhibits expression / decreases to background levels) [1]: 0.1 mM

B5: s9: tetracycline-responsive Venus (YFP) regulator antiswitch, SEQ ID NO: 9 (nucleic acid)
chain: UUGCUCACCAUGGUCCUCACCAUGGUGAGCAAAAAACAUACCAGAUCGCCACCCGCGCUUUAAUCUGGAGAGGUGAAGAAUACGACCACCUUUGCUCAC
modifications: chemistry not given here
- GFP expression on addition of tetracycline [1, 4]: not affecting
- Venus expression on addition of tetracycline [2, 4]: decreased
- Venus expression on addition of both ligands [2, 5]: decreased

B6: s5: antiswitch with aptamer domain having 10-fold lower affinity to theophylline than s1, SEQ ID NO: 5 (nucleic acid)
chain: ACCUUUAGACAUUUACCUCUAAAUGUCUAAAGGUGAUACCACGCGAAAGCGCCUUGGCAGCACCUUUAG
modifications: RNA, backbone not given here
- theophylline concentration required to switch, relative to s1 [1]: ~10 fold
- switching theophylline concentration compared with s1-4 [1]: higher theophylline concentrations
- Kd of aptamer domain for theophylline relative to the aptamer used in s1 (higher Kd / lower affinity) (theophylline aptamer): ~10 fold

B7: s6: destabilized modified theophylline aptamer antiswitch based on s5, SEQ ID NO: 6 (nucleic acid)
chain: B6 chain with A22C
modifications: RNA, backbone not given here
- switching theophylline concentration compared with s1-4 [1]: higher theophylline concentrations
